US8309523 (VIB VZW, dated 2012)
Like-named read-outs stand apart in the source and are kept apart here.

Columns and labels:
Ac-LSSR-AMC [1] = system: T1, Ac-LSSR-AMC
T1 sequence: LSSR

[2] = molecular target: T2, [35S]methionine-labeled human A20 (in vitro translated) (UniProt P21580)
T2 sequence: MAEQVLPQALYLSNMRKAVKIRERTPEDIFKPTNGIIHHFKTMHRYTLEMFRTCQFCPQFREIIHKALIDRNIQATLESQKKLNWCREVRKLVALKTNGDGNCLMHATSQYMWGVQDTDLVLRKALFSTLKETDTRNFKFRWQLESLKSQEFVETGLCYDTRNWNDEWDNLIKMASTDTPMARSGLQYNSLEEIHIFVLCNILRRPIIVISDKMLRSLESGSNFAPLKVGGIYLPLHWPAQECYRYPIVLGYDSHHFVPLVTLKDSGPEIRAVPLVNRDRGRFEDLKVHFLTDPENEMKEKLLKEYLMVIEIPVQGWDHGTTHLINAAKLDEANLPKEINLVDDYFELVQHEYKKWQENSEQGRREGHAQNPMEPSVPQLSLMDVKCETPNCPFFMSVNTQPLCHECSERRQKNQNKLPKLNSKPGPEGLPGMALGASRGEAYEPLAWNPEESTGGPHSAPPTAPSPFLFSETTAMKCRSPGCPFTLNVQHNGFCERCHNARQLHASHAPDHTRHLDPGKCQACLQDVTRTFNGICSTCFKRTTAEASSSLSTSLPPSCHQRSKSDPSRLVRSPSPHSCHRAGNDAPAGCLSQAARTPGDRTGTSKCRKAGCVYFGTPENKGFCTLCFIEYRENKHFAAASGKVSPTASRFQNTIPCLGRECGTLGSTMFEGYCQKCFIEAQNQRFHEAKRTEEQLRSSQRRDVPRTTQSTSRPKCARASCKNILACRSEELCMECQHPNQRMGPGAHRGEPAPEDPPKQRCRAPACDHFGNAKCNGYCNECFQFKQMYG

Ac-LSSR-AMC [3] = molecular target: T3, Ac-LSSR-AMC
T3 chain: LSSR

Z-LSSR-CHO = molecular target: T4, Z-LSSR-CHO
T4 chain: LSSR

[4] = molecular target: T5, Arabidopsis thaliana serpin (AT1g47710), Q9S7T8
T5 chain: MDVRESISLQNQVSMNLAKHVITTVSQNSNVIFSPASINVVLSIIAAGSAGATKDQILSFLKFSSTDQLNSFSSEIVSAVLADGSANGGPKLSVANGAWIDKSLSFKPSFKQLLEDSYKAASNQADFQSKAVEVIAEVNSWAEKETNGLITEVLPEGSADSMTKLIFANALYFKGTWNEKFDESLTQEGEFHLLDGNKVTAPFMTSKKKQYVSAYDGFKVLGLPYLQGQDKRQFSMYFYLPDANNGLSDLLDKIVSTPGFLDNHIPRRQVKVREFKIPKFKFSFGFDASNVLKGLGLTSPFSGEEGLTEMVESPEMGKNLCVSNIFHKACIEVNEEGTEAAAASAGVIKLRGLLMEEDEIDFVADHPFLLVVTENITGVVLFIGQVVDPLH

[5] = molecular target: T6, Arabidopsis thaliana serpin, IKLA-mutant, Q9S7T8
T6 chain: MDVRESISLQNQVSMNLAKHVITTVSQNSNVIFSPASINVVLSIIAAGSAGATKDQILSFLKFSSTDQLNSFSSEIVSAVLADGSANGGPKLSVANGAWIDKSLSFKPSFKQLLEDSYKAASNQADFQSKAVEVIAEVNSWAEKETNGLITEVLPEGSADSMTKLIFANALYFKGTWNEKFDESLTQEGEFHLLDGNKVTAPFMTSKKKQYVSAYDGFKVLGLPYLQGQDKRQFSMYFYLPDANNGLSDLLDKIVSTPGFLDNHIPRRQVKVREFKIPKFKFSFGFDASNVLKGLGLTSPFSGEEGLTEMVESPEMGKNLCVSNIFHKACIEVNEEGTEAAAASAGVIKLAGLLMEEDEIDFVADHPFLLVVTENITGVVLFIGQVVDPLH

B1: MALT1C-gyraseB-C464A (enzyme, part only; not given: gyrase B fragment)
chain, part: TTDQPLAKDKVALLIGNMNYREHPKLKAPLVDVYELTNLLRQLDFKVVSLLDLTEYEMRNAVDEFLLLLDKGVYGLLYYAGHGYENFGNSFMVPVDAPNPYRSENCLCVQNILKLMQEKETGLNVFLLDMARKRNDYDDTIPILDALKVTANIVFGYATCQGAEAFEIQHSGLANGIFMKFLKDRLLEDKKITVLLDEVAEDMGKCHLTKGKQALEIRSSLSEKRALTDPIQGTEYSAESLVRNLQWAKAHELPESMCLKFDCGVQIQLGFAAEFSNVMIIYTSIVYKPPEIIMCDAYVTDFPLDLDIDPKDANKGTPEETGSYLVSKDLPKHCLYTRLSSLQKLKEHLVFTVCLSYQYSGLEDTVEDKQEVNVGKPLIAKLDMHRGLGRKTCFQTCLMSNGPYQSSAATSGGAGHYHSLQDPFHGVYHSHPGNPSNVTPADSCHCSRTPDAFISSFAHHASCHFSRSNVPVETTDEIPFSFSDRLRISEK
Question: With B1 as the protein, how does the “cleavage of Ac-LSSR-AMC in vitro (fluorescence release)” value (from here on “cleavage of Ac-LSSR-AMC in vitro”) (Ac-LSSR-AMC [1]) read?
Answer: the recombinant C464A mutant failed to do so, although its higher concentration

Question: What about the “in vitro cleavage of radiolabeled A20 (SDS-PAGE, autoradiography; 500, 1000 or 1500 nM enzyme)” value [2] of the same protein?
Answer: incubation of A20 with the catalytically inactive MALT1C-gyraseB-C464A mutant protein did not result in A20 cleavage

B2: MALT1 (wild type, Flag- and Avi-tagged bio-construct) (protein)
chain: MSLLGDPLQALPPSAAPTGPLLAPPAGATLNRLREPLLRRLSELLDQAPEGRGWRRLAELAGSRGRLRLSCLDLEQCSLKVLEPEGSPSLCLLKLMGEKGCTVTELSDFLQAMEHTEVLQLLSPPGIKITVNPESKAVLAGQFVKLCCRATGHPFVQYQWFKMNKEIPNGNTSELIFNAVHVKDAGFYVCRVNNNFTFEFSQWSQLDVCDIPESFQRSVDGVSESKLQICVEPTSQKLMPGSTLVLQCVAVGSPIPHYQWFKNELPLTHETKKLYMVPYVDLEHQGTYWCHVYNDRDSQDSKKVEIIIGRTDEAVECTEDELNNLGHPDNKEQTTDQPLAKDKVALLIGNMNYREHPKLKAPLVDVYELTNLLRQLDFKVVSLLDLTEYEMRNAVDEFLLLLDKGVYGLLYYAGHGYENFGNSFMVPVDAPNPYRSENCLCVQNILKLMQEKETGLNVFLLDMCRKRNDYDDTIPILDALKVTANIVFGYATCQGAEAFEIQHSGLANGIFMKFLKDRLLEDKKITVLLDEVAEDMGKCHLTKGKQALEIRSSLSEKRALTDPIQGTEYSAESLVRNLQWAKAHELPESMCLKFDCGVQIQLGFAAEFSNVMIIYTSIVYKPPEIIMCDAYVTDFPLDLDIDPKDANKGTPEETGSYLVSKDLPKHCLYTRLSSLQKLKEHLVFTVCLSYQYSGLEDTVEDKQEVNVGKPLIAKLDMHRGLGRKTCFQTCLMSNGPYQSSAATSGGAGHYHSLQDPFHGVYHSHPGNPSNVTPADSCHCSRTPDAFISSFAHHASCHFSRSNVPVETTDEIPFSFSDRLRISEK
Question: What does the source list for B2?
Answer: cleavage of Ac-LSSR-AMC in vitro (fluorescence release) (Ac-LSSR-AMC [3]): bio-IP purified MALT1 was indeed able to cleave Ac-LSSR-AMC (see SEQ ID NO:1) in vitro; Ac-LSSR-AMC cleavage by bio-IP purified MALT1 (fluorescence release) (Z-LSSR-CHO): Substrate cleavage by MALT1 was efficiently blocked by a Z-LSSR-CHO (see SEQ ID NO:1) and a Z-GASR-CHO (see SEQ ID NO:2) inhibitor at equimolar concentrations

B3: MALT1-R149A (bio-tagged) (protein)
chain: MSLLGDPLQALPPSAAPTGPLLAPPAGATLNRLREPLLRRLSELLDQAPEGRGWRRLAELAGSRGRLRLSCLDLEQCSLKVLEPEGSPSLCLLKLMGEKGCTVTELSDFLQAMEHTEVLQLLSPPGIKITVNPESKAVLAGQFVKLCCAATGHPFVQYQWFKMNKEIPNGNTSELIFNAVHVKDAGFYVCRVNNNFTFEFSQWSQLDVCDIPESFQRSVDGVSESKLQICVEPTSQKLMPGSTLVLQCVAVGSPIPHYQWFKNELPLTHETKKLYMVPYVDLEHQGTYWCHVYNDRDSQDSKKVEIIIGRTDEAVECTEDELNNLGHPDNKEQTTDQPLAKDKVALLIGNMNYREHPKLKAPLVDVYELTNLLRQLDFKVVSLLDLTEYEMRNAVDEFLLLLDKGVYGLLYYAGHGYENFGNSFMVPVDAPNPYRSENCLCVQNILKLMQEKETGLNVFLLDMCRKRNDYDDTIPILDALKVTANIVFGYATCQGAEAFEIQHSGLANGIFMKFLKDRLLEDKKITVLLDEVAEDMGKCHLTKGKQALEIRSSLSEKRALTDPIQGTEYSAESLVRNLQWAKAHELPESMCLKFDCGVQIQLGFAAEFSNVMIIYTSIVYKPPEIIMCDAYVTDFPLDLDIDPKDANKGTPEETGSYLVSKDLPKHCLYTRLSSLQKLKEHLVFTVCLSYQYSGLEDTVEDKQEVNVGKPLIAKLDMHRGLGRKTCFQTCLMSNGPYQSSAATSGGAGHYHSLQDPFHGVYHSHPGNPSNVTPADSCHCSRTPDAFISSFAHHASCHFSRSNVPVETTDEIPFSFSDRLRISEK
Question: B3 was tested. Which “cleavage of Ac-LSSR-AMC in vitro” value (Ac-LSSR-AMC [3]) did it give?
Answer: the R149A mutant was as efficient in substrate processing as MALT1

B4: MALT1-C464A (bio-tagged) (protein)
chain: MSLLGDPLQALPPSAAPTGPLLAPPAGATLNRLREPLLRRLSELLDQAPEGRGWRRLAELAGSRGRLRLSCLDLEQCSLKVLEPEGSPSLCLLKLMGEKGCTVTELSDFLQAMEHTEVLQLLSPPGIKITVNPESKAVLAGQFVKLCCRATGHPFVQYQWFKMNKEIPNGNTSELIFNAVHVKDAGFYVCRVNNNFTFEFSQWSQLDVCDIPESFQRSVDGVSESKLQICVEPTSQKLMPGSTLVLQCVAVGSPIPHYQWFKNELPLTHETKKLYMVPYVDLEHQGTYWCHVYNDRDSQDSKKVEIIIGRTDEAVECTEDELNNLGHPDNKEQTTDQPLAKDKVALLIGNMNYREHPKLKAPLVDVYELTNLLRQLDFKVVSLLDLTEYEMRNAVDEFLLLLDKGVYGLLYYAGHGYENFGNSFMVPVDAPNPYRSENCLCVQNILKLMQEKETGLNVFLLDMARKRNDYDDTIPILDALKVTANIVFGYATCQGAEAFEIQHSGLANGIFMKFLKDRLLEDKKITVLLDEVAEDMGKCHLTKGKQALEIRSSLSEKRALTDPIQGTEYSAESLVRNLQWAKAHELPESMCLKFDCGVQIQLGFAAEFSNVMIIYTSIVYKPPEIIMCDAYVTDFPLDLDIDPKDANKGTPEETGSYLVSKDLPKHCLYTRLSSLQKLKEHLVFTVCLSYQYSGLEDTVEDKQEVNVGKPLIAKLDMHRGLGRKTCFQTCLMSNGPYQSSAATSGGAGHYHSLQDPFHGVYHSHPGNPSNVTPADSCHCSRTPDAFISSFAHHASCHFSRSNVPVETTDEIPFSFSDRLRISEK
Question: With B4 as the protein, how does the “cleavage of Ac-LSSR-AMC in vitro” value (Ac-LSSR-AMC [3]) read?
Answer: whereas bio-1P purified C464 mutant was not

B5: MALT1 as used in the paracaspase assay of Example 10 (protein)
chain: MSLLGDPLQALPPSAAPTGPLLAPPAGATLNRLREPLLRRLSELLDQAPEGRGWRRLAELAGSRGRLRLSCLDLEQCSLKVLEPEGSPSLCLLKLMGEKGCTVTELSDFLQAMEHTEVLQLLSPPGIKITVNPESKAVLAGQFVKLCCRATGHPFVQYQWFKMNKEIPNGNTSELIFNAVHVKDAGFYVCRVNNNFTFEFSQWSQLDVCDIPESFQRSVDGVSESKLQICVEPTSQKLMPGSTLVLQCVAVGSPIPHYQWFKNELPLTHETKKLYMVPYVDLEHQGTYWCHVYNDRDSQDSKKVEIIIGRTDEAVECTEDELNNLGHPDNKEQTTDQPLAKDKVALLIGNMNYREHPKLKAPLVDVYELTNLLRQLDFKVVSLLDLTEYEMRNAVDEFLLLLDKGVYGLLYYAGHGYENFGNSFMVPVDAPNPYRSENCLCVQNILKLMQEKETGLNVFLLDMCRKRNDYDDTIPILDALKVTANIVFGYATCQGAEAFEIQHSGLANGIFMKFLKDRLLEDKKITVLLDEVAEDMGKCHLTKGKQALEIRSSLSEKRALTDPIQGTEYSAESLVRNLQWAKAHELPESMCLKFDCGVQIQLGFAAEFSNVMIIYTSIVYKPPEIIMCDAYVTDFPLDLDIDPKDANKGTPEETGSYLVSKDLPKHCLYTRLSSLQKLKEHLVFTVCLSYQYSGLEDTVEDKQEVNVGKPLIAKLDMHRGLGRKTCFQTCLMSNGPYQSSAATSGGAGHYHSLQDPFHGVYHSHPGNPSNVTPADSCHCSRTPDAFISSFAHHASCHFSRSNVPVETTDEIPFSFSDRLRISEK
Question: With B5 as the protein, how does the “paracaspase assay (MALT1 proteolytic activity)” value [4] read?
Answer: Inhibition of the MALT1 paracaspase activity is possible, but only at relatively high concentrations of serpin

Question: What about the “paracaspase assay (MALT1 proteolytic activity)” value [5] of the same protein?
Answer: the IKLA-mutant (SEQ ID NO:16), which is inactive versus plant metacaspase (Vercammen et al., 2006) is performing better than wild type serpin at higher concentrations
